Usually Kd stands for a measure of binding affinity in units of concentration. A lower Kd goes with tighter binding. The koff is the rate constant with which the complex falls apart. By kon is commonly meant the second-order rate constant of association. A lower kon goes with slower complex formation.

Test in all cases: SPR, antigen on chip
(SPR reads the build-up and loss of mass on a sensor chip optically.)

The target of experiment [1] is T1, SARS-CoV-2 spike trimer S (Wuhan, SmT1) (SARS-CoV-2 Wuhan).
T1 construct: extracellular domain

The target in experiment [2] is T2, SARS-CoV-2 S1 (aa16-685) (Wuhan) (SARS-CoV-2 Wuhan, UniProt P0DTC2 16-685).
T2 construct: NRC; FLAG, 6xHis tags

The target in experiment [3] is T3, SARS-CoV-2 S2 (aa686-1208) (Wuhan) (SARS-CoV-2 Wuhan, UniProt P0DTC2 686-1208).
T3 construct: NRC; FLAG, 6xHis tags

Experiment [4] has as its target SARS-CoV-2 S1-RBD fused to human Fc (S1-RBD-Fc) (SARS-CoV-2 Wuhan; human).

B1: NRCoV2-S2G4 VHH (VHH)
VHH: QVQLVQSGGGLVQAGGSLTLSCAPSGSTFSGYATNWYRQAPGKQRELVATISSDGDKNYADSVKGRFTISRDNAKNTVYLQMNSLKPEDTAVYYCNKHWWTGDWWGQGTQVTVSS
In experiment [1], B1 returned a Kd of 0.232 nM, a koff of 0.000207 s⁻¹ and a kon of 893000 M⁻¹ s⁻¹. The binding result in experiment [2] is listed as “no binding”. In experiment [3], this molecule yielded a dissociation constant (Kd) of 0.413 nM, a koff of 0.000382 s⁻¹ and a kon of 925000 M⁻¹ s⁻¹.

B2: NRCoV2-S2A4 VHH (VHH)
VHH: QVQLVQSGGGLVQAGGSLRLSCAVSGSPFRSNVMEWYRQAPGKQRELVASISTGGSRTYTDSVKGRFTISRDNAKNEAFLQMNSLKPEDTAVYYCHAAARDSHGIYLLDTWGQGTQVTVSS
With B2, in experiment [1], the Kd came out at 12.8 nM, the off-rate (koff) stood at 0.000446 s⁻¹ and the association rate constant (kon) worked out at 34900 M⁻¹ s⁻¹. Further, the binding result in experiment [2] is “no binding”. In experiment [3], this molecule gave a Kd of 14.7 nM, a dissociation rate constant (koff) of 0.000414 s⁻¹ and a kon of 28100 M⁻¹ s⁻¹.

B3: NRCoV2-SR13 VHH (VHH)
VHH: EVQLVESGGGLVTTGGSLRLSCATSGSRFGSKHMAWYRQAPGKQRDLVAAISSGGSTHYGSSVKGRFTISRDNAKSTVYLQMNSLNPEDTAVFYCNMGGWDYRSNTYIPGSRSDYWGQGTQVTVSS
For the molecule B3, in experiment [1], the Kd stood at 2.62 nM, the off-rate (koff) was 0.00481 s⁻¹ and the association rate constant (kon) is 1.83e+06 M⁻¹ s⁻¹. In experiment [2], this molecule showed a Kd of 2.43 nM, a dissociation rate constant (koff) of 0.00545 s⁻¹ and a kon of 2.25e+06 M⁻¹ s⁻¹. Besides, in experiment [3], the binding result is “no binding”.

B4: NRCoV2-18 VHH (VHH)
VHH: EVQLVESGGGLVQAGGSLRLSCVASGITISGYNMAWWRQTRGKQTERVAFINSGGSTTYSDSVKGRFTISRDNGKNTAYLQMNSLNAEDTADYFCSLHTSHDYWGQGTQVTVSS
In experiment [4], B4 had a dissociation constant (Kd) of 0.736 nM, a koff of 0.000197 s⁻¹ and a kon of 268000 M⁻¹ s⁻¹. Besides, in experiment [1], binding was put at a Kd of 0.384 nM, the off-rate (koff) was determined as 0.000152 s⁻¹ and the on-rate constant (kon) worked out at 395000 M⁻¹ s⁻¹. In experiment [2], this molecule returned a dissociation constant Kd of 0.536 nM, a koff of 0.000165 s⁻¹ and a kon of 308000 M⁻¹ s⁻¹. In addition, in experiment [3], the binding result is “no binding”.

B5: NRCoV2-02 VHH (VHH)
VHH: EVQLVESGGGLVQAGGSLRLSCAASGFTFSNYAMNWVRQAPGKGLEWVSGISGRGDDTRYADSVKGRFTISRDNAKNTLFLQMRSLRPEDTGVYRCTKGPDLYYFGSGYSDRGQGTQVTVSS
In experiment [4], B5 gave a Kd of 0.773 nM, an off-rate (koff) of 0.00141 s⁻¹ and a kon of 1.83e+06 M⁻¹ s⁻¹. For the same molecule, in experiment [1], the affinity, expressed as Kd, was 0.661 nM; the koff came out at 0.00141 s⁻¹; the kon worked out at 2.14e+06 M⁻¹ s⁻¹. In experiment [2], the Kd worked out at 0.659 nM, the dissociation rate constant (koff) worked out at 0.00138 s⁻¹ and the kon was determined as 2.1e+06 M⁻¹ s⁻¹. In experiment [3], the binding result was “no binding”.

B6: NRCoV2-04 VHH (VHH)
VHH: AVQLVDSGGGLVQPGGSLRLSCAASGSPFSNVVMAWYRQAPGKQRERVAFISGGGIADYIMSVKGRFTISRDNAKNTVYLQMNSLKPEDTAVYYCWSSYESTWGQGTQVTVSS
B6: in experiment [4], the Kd was 12.5 nM, the koff turned out to be 0.0192 s⁻¹ and the kon worked out at 1.53e+06 M⁻¹ s⁻¹. Further, in experiment [1], binding was put at a Kd of 10 nM, the koff amounted to 0.0198 s⁻¹ and the kon was 1.97e+06 M⁻¹ s⁻¹. In experiment [2], this molecule registered a Kd of 11.2 nM, a koff of 0.018 s⁻¹ and an on-rate (kon) of 1.61e+06 M⁻¹ s⁻¹. Moreover, the binding result in experiment [3] is given as “no binding”.

B7: NRCoV2-SR03 VHH (VHH)
VHH: AVQLVDSGGGLVQAGGSLRLSCAASGSIFSNNHMGWYRQAPGKQRELVAAISSGGKTNYADFAKGRFTISRDNAKNMVYLQMNSLKPEDTAVYYCNRGGWEYRSSYYIMGPHWGQGTQVTVSS
In experiment [1], B7 yielded a Kd of 1.01 nM, a koff of 0.00102 s⁻¹ and a kon of 1.01e+06 M⁻¹ s⁻¹. In experiment [2], this molecule had an equilibrium dissociation constant (Kd) of 1.13 nM, an off-rate constant (koff) of 0.00103 s⁻¹ and a kon of 905000 M⁻¹ s⁻¹. Further, the binding result in experiment [3] was “no binding”.

B8: NRCoV2-SR04 VHH (VHH)
VHH: QVQLVESGGGLVQAGGSLRLSCAASGRTFSSHTVGWYRQAPGKQRDLVAAISMGGNTNYADYADSVKGRFTISRDNAKNTLYLQMNSLKPEDTAVYYCNTAALVGNRLLPMATITWGQGTQVTVSS
On to B8, for which, in experiment [1], the Kd was determined as 0.14 nM, the koff is 0.000335 s⁻¹ and the kon is 2.39e+06 M⁻¹ s⁻¹. Besides, in experiment [2], the Kd was 0.226 nM, the off-rate (koff) was 0.000493 s⁻¹ and the on-rate (kon) was found to be 2.18e+06 M⁻¹ s⁻¹. The binding result in experiment [3] is “no binding”.

B9: NRCoV2-06 VHH (VHH)
VHH: EVQLVQSGGGLVQAGESLRLSCAASVSTFSSYAMGWYRQAPGKQRELVASIGFVGATYYIDSVKGRFTISRDNAKKTAYLQMNDLKPDDTAVYYCNARHYGGSEYWGQGTQVTVSS
For B9, the Kd was 69.9 nM in experiment [4], 155 nM in experiment [1] and 129 nM in experiment [2]. For the same molecule, the values for the off-rate constant (koff) in experiment [4], in experiment [1] and in experiment [2] were 0.00415 s⁻¹, 0.00469 s⁻¹ and 0.0133 s⁻¹, respectively. The kon came out at 59400 M⁻¹ s⁻¹ in experiment [4], 30200 M⁻¹ s⁻¹ in experiment [1] and 104000 M⁻¹ s⁻¹ in experiment [2]. Moreover, the binding result in experiment [3] was “no binding”.

B10: NRCoV2-05 VHH (VHH)
VHH: EVKLVQSGGGLVQPGGSLRLSCAASGFIFSNYAMNWVRQAPGKGLEWVSGINSGGGDTRYADSVKGRFTVSRDNAKNTLYLQMNSLKPEDTGVYYCSKGPVSSYYGSGYDYRGQGTQVTVSS
On to B10, for which, in experiment [4], binding was characterised by a dissociation constant (Kd) of 2.33 nM, the koff amounted to 0.00585 s⁻¹ and the kon was found to be 2.51e+06 M⁻¹ s⁻¹. In experiment [1], this molecule displayed a Kd of 1.72 nM, a koff of 0.00743 s⁻¹ and a kon of 4.33e+06 M⁻¹ s⁻¹. In experiment [2], this molecule yielded a Kd of 2 nM, a koff of 0.00806 s⁻¹ and a kon of 4.03e+06 M⁻¹ s⁻¹. Further, the binding result in experiment [3] is on record as “no binding”.

B11: NRCoV2-S2G3 VHH (VHH)
VHH: QVQLVQSGGGSVQAGGSLRLSCAASGSTFGIFLMGWRRQAPGKQRELVAHITSGGATNYADSVKGRFTISRDNAKNTVYLQMNSLEPEDTAVYYCYTTKRDDASVYWGQGTQVTVSS
Regarding B11, in experiment [1], the Kd is 3.74 nM, the koff came out at 0.000607 s⁻¹ and the kon stood at 162000 M⁻¹ s⁻¹. In addition, the binding result in experiment [2] is “no binding”. In experiment [3], this molecule returned a Kd of 4.28 nM, an off-rate (koff) of 0.000627 s⁻¹ and a kon of 147000 M⁻¹ s⁻¹.

B12: NRCoV2-1d VHH (VHH)
VHH: EVQLVESGGGSVQPGGSLRLSCAASGSTLDYYAIGWFRQAPGKEREWVSSVSSSDGNTLYADSVKGRFTISRDNAKNTVYLQMNSLKAEDTAVYVCAADYSMRPFAVGRWHRDYEYWGQGTQVTVSS
In experiment [4], B12 registered a Kd of 2.1 nM, a koff of 0.00118 s⁻¹ and a kon of 562000 M⁻¹ s⁻¹. In experiment [1], the Kd is 1.1 nM, the off-rate constant (koff) stood at 0.00117 s⁻¹ and the kon was found to be 1.06e+06 M⁻¹ s⁻¹. Besides, in experiment [2], the Kd turned out to be 1.32 nM, the koff turned out to be 0.00114 s⁻¹ and the association rate constant (kon) was found to be 867000 M⁻¹ s⁻¹. Further, the binding result in experiment [3] was “no binding”.

B13: NRCoV2-20 VHH (VHH)
VHH: EVQLQQSGGGLVQPGGSLRLSCAASGRTFSNYVVGWFRQAPQAPGKDHEFVAVISGSDTETYYADSVKGRFTISRDNAKNTVYLQMNSLKPEDTAVYYCAADRGMSYYYTRATEYYYWGQGTQVTVSS
Regarding B13, in experiment [4], binding was characterised by a dissociation constant (Kd) of 8.61 nM, the koff is 0.0123 s⁻¹ and the kon was 1.43e+06 M⁻¹ s⁻¹. In experiment [1], this molecule returned a Kd of 6.73 nM, a koff of 0.0159 s⁻¹ and a kon of 2.37e+06 M⁻¹ s⁻¹. For the same molecule, in experiment [2], the equilibrium dissociation constant (Kd) is 9.63 nM, the off-rate constant (koff) amounted to 0.0189 s⁻¹ and the kon amounted to 1.96e+06 M⁻¹ s⁻¹. The binding result in experiment [3] was “no binding”.

B14: NRCoV2-S2F3 VHH (VHH)
VHH: EVQLVQSGGGLVQAGGSLRLSCATSVRILSVPAMGWYRQAPGKEREMVAVITSGGSTNYADSVKGRFTISRDNAKNTVYLQMNSLKLEDTAVYQCNLRDILSQPFWGQGTQVTVSS
In experiment [1], B14 gave an equilibrium dissociation constant (Kd) of 3.03 nM, an off-rate (koff) of 0.000473 s⁻¹ and a kon of 156000 M⁻¹ s⁻¹. The binding result in experiment [2] is recorded as “no binding”. In experiment [3], this molecule returned a dissociation constant (Kd) of 6.22 nM, an off-rate (koff) of 0.000629 s⁻¹ and an association rate constant (kon) of 101000 M⁻¹ s⁻¹.

B15: NRCoV2-SR16 VHH (VHH)
VHH: QVQLVQSAGGLVQAGGSLRLSCVVSGTTFSRYHMGWHRQAPGKQRDFVAGISTSGAVTYADSAKGRFTISRDNAKNTVYLEMNSLKLEDTALYYCNTGGWDYRSSTFIMGLNWGQGTQVTVSS
On to B15, for which, in experiment [1], the affinity, expressed as Kd, was 1.82 nM; the koff worked out at 0.0012 s⁻¹; the kon was 657000 M⁻¹ s⁻¹. Further, in experiment [2], the Kd was found to be 1.55 nM, the dissociation rate constant (koff) was found to be 0.00115 s⁻¹ and the kon was 739000 M⁻¹ s⁻¹. The binding result in experiment [3] is reported as “no binding”.

B16: NRCoV2-03 VHH (VHH)
VHH: EVQLVSSGGGLVQAGGSLRLSCTASGITFSYYAMGWYRQAPGQPRELVASMSNMDSTIYADSVKGRFTISRDNAKTTIYLQMNNLKPEDTAVYFCNIYGPTYSTRRNEYWGQGTQVTVSS
In experiment [4], B16 showed a dissociation constant Kd of 1.53 nM, a koff of 0.000255 s⁻¹ and a kon of 166000 M⁻¹ s⁻¹. In experiment [1], binding was characterised by a dissociation constant (Kd) of 1.34 nM, the koff was determined as 0.000334 s⁻¹ and the on-rate (kon) worked out at 250000 M⁻¹ s⁻¹. In experiment [2], the affinity, expressed as Kd, was 1.09 nM; the off-rate (koff) was found to be 0.000263 s⁻¹; the kon is 241000 M⁻¹ s⁻¹. Also, the binding result in experiment [3] was “no binding”.

The values are drawn from patent US20240270826A1 (NATIONAL RESEARCH COUNCIL OF CANADA, published 2024).
